Measured values published in the supplement of paper PMC10126150.
± gives the standard deviation of the averaged measurements.

Test system: ATP
Test: switch fluorescence ratio, 500 uM ATP over buffer (Cy3 cluster intensity, sum of 5 cycles each) (fold (ratio)); higher = stronger signal-on switching upon ATP binding; sequences stand for … in TCGTCGGCAGCGTCAGATGTGTATAAGAGACAGTTTTTTTTTTTTTTTTTTTTTTTTT…TC
Conditions: aptamer strand: ATP DNA aptamer (quencher-CACCTGGGGGAGTATTGCGGAGGAAGG + anchor), 100 nM annealed; ATP concentration: 500 uM
In short: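 Cy3-labelled switching-strand clusters on a modified Illumina MiSeq flow-cell were annealed to 100 nM quencher-labelled ATP aptamer and imaged first in selection buffer, then after 15 min with 500 uM ATP at 22 °C. NaOH stripping and re-annealing separated each of five buffer/ATP cycles, and clusters outside 100-1000 RFU were excluded. The fluorescence ratio sums target-cycle Cy3 intensity over buffer-cycle Cy3 intensity per cluster and averages it per switch-domain sequence.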
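Also: ATP exposure 15 min at 22 °C before imaging.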

Sequence	switch fluorescence ratio
CCATGTGTCG	1.05 ± 0.064
CCATTAATAG	1.04 ± 0.057
CCATTAGTTT	0.987 ± 0.018
CCATTCTTGT	1.04 ± 0.022
CCATTTCTGA	1.03 ± 0.015
CCATTTGTGT	0.976 ± 0.023
CCCAAAAACG	1.25 ± 0.29
CCCAATTCCT	1.14 ± 0.031
CCCAATTTCT	1.05 ± 0.045
CCCACCGGGC	1.05 ± 0.022
CCCACCGTTG	1.17 ± 0.03
CCCAGCACGT	1.37 ± 0.04
CCCAGGGT	1.54 ± 0.67
CCCATTATGC	1.13 ± 0.057
CCCATTGTCG	1.01 ± 0.064
CCCATTTTGC	1.032 ± 0.0067
CCCCAGAGCT	1.66 ± 0.066
CCCCAGGGGT	2.44 ± 2
CCCCGGCTGG	1.125 ± 0.005
CCCCGGGGGG	1.09 ± 0.15
CCCCTGTTTT	1.01 ± 0.022
CCCGAAGGGC	1.01 ± 0.081

Sequence	switch fluorescence ratio
CCCGACTTTA	1.04 ± 0.014
CCCGAGTATG	1.034 ± 0.0099
CCCGATGTTA	0.9973 ± 0.0041
CCCGATTTTG	1.023 ± 0.0069
CCCGGACGGT	1 ± 0.025
CCCGGATTTG	1.01 ± 0.055
CCCGGCTGTT	1.02 ± 0.067
CCCGGGAAAT	1.04 ± 0.059
CCCGGGAGGT	1.035 ± 0.0094
CCCGGGGGCT	1.41 ± 0.032
CCCGGGTTGG	1.12 ± 0.08
CCCGGTATCG	0.983 ± 0.013
CCCGGTTTAG	1.03 ± 0.0015
CCCGTATATC	2.72 ± 0.44
CCCGTGCCTA	1.03 ± 0.064
CCCGTGTGAG	0.983 ± 0.045
CCCTAGGATT	1.01 ± 0.03
CCCTAGGGTC	1.01 ± 0.023
CCCTAGGGTT	1.44 ± 0.56
CCCTAGTATG	0.9915 ± 0.0059
CCCTATTTGC	1.06 ± 0.02
CCCTGATCTG	1.02 ± 0.011

Sequence	switch fluorescence ratio
CCCTGGACGG	0.9883 ± 0.0053
CCCTGTCATC	2.1 ± 1.4
CCCTGTGAGC	1.08 ± 0.013
CCCTTGATGC	1.151 ± 0.008
CCGAAAAGCT	1.17 ± 0.041
CCGAAGGTTA	1.09 ± 0.032
CCGAATAATT	1.08 ± 0.011
CCGAATAGTT	1.18 ± 0.14
CCGAATTATA	2.04 ± 1.3
CCGAATTGGG	1.01 ± 0.032
CCGAGATCTT	1.03 ± 0.032
CCGAGCTTGA	1.61 ± 0.085
CCGAGGAATG	1.106 ± 0.0083
CCGAGTTTGT	1.05 ± 0.011
CCGATAATAG	5.21 ± 2.2
CCGATTAAAT	1.44 ± 0.1
CCGATTACGC	1.9 ± 0.13
CCGATTGGCA	1.55 ± 0.14
CCGATTGTTG	1.02 ± 0.038
CCGCACGAGT	3.73 ± 0.63
CCGCACTAAG	3.94 ± 0.74
CCGCATTTGT	2.68 ± 2.4

Sequence	switch fluorescence ratio
CCGCCATTGG	1.62 ± 0.069
CCGCCGGGGT	1.91 ± 0.31
CCGCGCTGCC	2.71 ± 0.8
CCGCGGCTGG	1.154 ± 0.01
CCGGAAGCAG	3.95 ± 0.66
CCGGAATCAT	1.127 ± 0.00097
CCGGAGGGAG	1.0201 ± 0.0006
CCGGAGTTGG	3.49 ± 0.11
CCGGATACGT	1.39 ± 0.086
CCGGATTGTC	1.13 ± 0.044
CCGGCGGGGC	1 ± 0.013
CCGGCGGGGG	1.4 ± 0.56
CCGGCTTGCA	1.13 ± 0.017
CCGGGAAGGG	1.05 ± 0.012
CCGGGAGCAG	1.95 ± 0.61
CCGGGATGGT	1.14 ± 0.057
CCGGGATTGA	1.083 ± 0.0038
CCGGGCCAGC	1.47 ± 0.063
CCGGGGAACA	1.004 ± 0.0069
